# In article PMC2726290 (2008):
# No end group written: not given here.
# B1: H3K4me1 15-mer histone H3 tail peptide (peptide)
# peptide: ARTK(Me)QTARKSTGGKA
# B2: H3K4me2 9-mer whose A1 was substituted with a glycine (peptide)
# peptide: GRTKQTARK
# modifications: dimethyl-lysine at K4
# B3: H3K4me3 15-mer histone H3 tail peptide (peptide)
# peptide: ARTKQTARKSTGGKA
# modifications: trimethyl-lysine at K4
# What was measured:
# [1] = target: T1, hPHD-HD1 complex (hPygo1 PHD 333-402 with hBCL9 HD1) (human, UniProt Q9Y3Y4 333-402; O00512 177-205); assay: ITC
# T1 chain 1: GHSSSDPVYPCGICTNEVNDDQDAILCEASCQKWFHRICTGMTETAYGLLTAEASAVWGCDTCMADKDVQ
# T1 chain 2: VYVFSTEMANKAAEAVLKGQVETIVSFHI
# hPygo1 PHD finger V350E = target: T2, hPygo1 PHD finger V350E (human, UniProt Q9Y3Y4 333-402, V350E); assay: ITC
# T2 sequence: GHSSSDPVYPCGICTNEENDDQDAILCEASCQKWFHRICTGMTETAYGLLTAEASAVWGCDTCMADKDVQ
# [2] = target: hPygo1 PHD finger mutated at N351 (human, UniProt Q9Y3Y4 333-402); assay: ITC; N351A
# [3] = target: hPygo1 PHD finger mutated at Q354 (human, UniProt Q9Y3Y4 333-402); assay: ITC; Q354A
Binder,Kd [1],Kd (hPygo1 PHD finger V350E),Kd [2],Kd [3]
B1,2.2 µM,–,–,–
B2,99.8 µM,–,–,–
B3,–,98 µM,7.1 µM,13.8 µM
